We go through 33 sequences from the Immune Epitope Database (IEDB).

Experiment [1] addresses HLA-B*08:01. The experiment is described as follows: IEDB peptide-MHC binding, purified MHC/competitive/radioactivity; filed as Kd, often an IC50 or EC50 that approximates it; ≥ and ≤ were set here for values at or beyond the usual limits of such assays.
The target of experiment [2] is HLA-A*24:02. Description: IEDB peptide-MHC binding, purified MHC/competitive/fluorescence; ≥ and ≤ were set here for values at or beyond the usual limits of such assays.
The target of experiment [3] is HLA-A*26:01. The experiment is described as follows: IEDB peptide-MHC binding, purified MHC/competitive/radioactivity; filed as Kd, often an IC50 or EC50 that approximates it; ≥ and ≤ were set here for values at or beyond the usual limits of such assays.
In experiment [4] the target is HLA-A*30:02. Described as above.
Experiment [5] deals with HLA-A*24:02. Described as above.
Experiment [6] has as its target HLA-A*29:02. Described as above.
The target of experiment [7] is HLA-A*23:01. Described as above.
Experiment [8] addresses HLA-A*01:01. The description is as above.
Experiment [9] deals with HLA-A*02:01. Description: IEDB peptide-MHC binding, purified MHC/competitive/fluorescence; ≥ and ≤ were set here for values at or beyond the usual limits of such assays.
The target of experiment [10] is HLA-A*03:01. Description: IEDB peptide-MHC binding, purified MHC/competitive/radioactivity; filed as Kd, often an IC50 or EC50 that approximates it; ≥ and ≤ were set here for values at or beyond the usual limits of such assays. Conditions: source organism: Vaccinia virus WR.
Experiment [11] concerns the target HLA-A*68:01. The experiment is described as above. Conditions: source organism: Vaccinia virus WR.
Experiment [12] concerns the target HLA-A*33:01. Described as above. The following applies: source organism: Vaccinia virus WR.
The target of experiment [13] is HLA-A*31:01. The experiment is described as above. Conditions: source organism: Vaccinia virus WR.
The target in experiment [14] is HLA-A*11:01. Described as above. The following applies: source organism: Vaccinia virus WR.
In experiment [15] the target is HLA-B*18:01. Description: IEDB peptide-MHC binding, purified MHC/direct/fluorescence; filed as Kd, often an IC50 or EC50 that approximates it; ≥ and ≤ were set here for values at or beyond the usual limits of such assays. Conditions: source organism: Campylobacter jejuni RM1221.
The mark [16] stands for this setting: source organism: SARS coronavirus Tor2.
The mark [17] stands for this setting: source organism: Dengue virus 2 Jamaica/1409/1983.
[18] abbreviates: source organism: Vaccinia virus.
The mark [19] stands for this setting: source organism: Vaccinia virus WR.
[20] abbreviates: source organism: Zaire ebolavirus.
Setting [21] is: source organism: Mammarenavirus machupoense.

In general, Kd refers to a measure of binding affinity in units of concentration. Broadly, the IC50 is the point on the concentration scale where inhibition reaches its midpoint. A higher IC50 goes with lower potency.

Where only a bound is given, the exact number is not on record here.

Regarding IMKIGIGVLL, the Kd in experiment [1] (source organism: Dengue virus 3 Singapore/8120/1995) is 4.31 µM.
INREGKVVGL: in [1] (source organism: Dengue virus 3 Martinique/1243/1999), the dissociation constant Kd came to 10.9 µM.
As for IYRGVNFAE, in experiment [2] (source organism: Sudan ebolavirus), the IC50 stood at 4.97 µM. This counts as single-digit micromolar.
KFADDLNQM: the Kd in experiment [3] (setting [16]) was no less than 44.3 µM; in experiment [4] (setting [16]), no less than 30 µM; in experiment [5] (setting [16]), 1.5 µM; in experiment [6] (setting [16]) it was 0.124 µM; in experiment [7] (setting [16]), 0.659 µM; in [8] (setting [16]), no less than 78.1 µM.
With KIEELFYSY, the Kd in [3] (setting [16]) is no less than 81.5 µM; in [4] (setting [16]), 0.0116 µM; in experiment [5] (setting [16]) it was no less than 20.7 µM; in experiment [6] (setting [16]) it was 0.0392 µM; in experiment [7] (setting [16]), no less than 23.9 µM; in experiment [8] (setting [16]), 0.54 µM.
On to KREDQWCGSL, for which the Kd in [1] (setting [17]) was found to be 7.72 µM.
Take KWDLIISDMY: the Kd in experiment [3] (setting [16]) is no less than 20.7 µM; in experiment [4] (setting [16]), 0.0859 µM; in experiment [5] (setting [16]), no less than 39.4 µM; in experiment [6] (setting [16]), 0.253 µM; in experiment [7] (setting [16]), no less than 70 µM; in experiment [8] (setting [16]), no less than 90.9 µM.
On to LEDDRERLK, for which the IC50 in experiment [2] (source organism: Variola virus) is 2.28 µM.
MEKSSKYYI: the IC50 was no less than 1680 µM in [9] (setting [18]) and 1.66 µM in experiment [2] (setting [18]).
Take MMMKRLMFE: the Kd in [1] (setting [19]) turned out to be 0.075 µM.
Turning to MRRGDLPVWL, the Kd in experiment [1] (setting [17]) is 5.8 µM.
As to NITDKIDQI, the figures for the IC50 in experiment [9] (setting [20]) and in [2] (setting [20]) were 25.3 µM and 9.67 µM, respectively.
Take NKKYRCMAL: the Kd in experiment [1] (setting [19]) came to 0.00187 µM.
As for NSKVQIGEY, the Kd in experiment [3] (setting [16]) was 0.235 µM; in [4] (setting [16]) it was 0.0572 µM; in experiment [5] (setting [16]), no less than 34.8 µM; in experiment [6] (setting [16]), 2.27 µM; in [7] (setting [16]), no less than 77.8 µM; in experiment [8] (setting [16]), no less than 37.7 µM.
Take QKKKQRSGVL: in experiment [1] (source organism: Dengue virus 1 Brazil/97-11/1997), the Kd was determined as 1.87 µM.
RQLTKFTDF: the Kd in experiment [1] (setting [19]) turned out to be 0.155 µM.
RSNTTGKLI: the values for the half-inhibitory concentration (IC50) in [9] (setting [20]) and in experiment [2] (setting [20]) were no less than 805 µM and 44.1 µM, respectively.
On to SHRPVVLTG, for which the IC50 in experiment [2] (source organism: Variola virus) is no less than 71.3 µM.
SIRFHIKEL: the Kd in experiment [1] (setting [19]) amounted to 0.000453 µM.
The same measure, in the same setting: under SKKFKFNSQ stands 6.99 µM; under SKRTKSKIL, 0.14 µM; under SLNFRFENV, 0.586 µM.
Take SNKYRIKSV: the Kd in experiment [1] (setting [19]) was 0.00266 µM.
Take TVDSSQGSEY: the dissociation constant Kd in experiment [3] (setting [16]) is 1.07 µM; in experiment [4] (setting [16]) it was 0.414 µM; in experiment [5] (setting [16]) it was no less than 70.3 µM; in experiment [6] (setting [16]), 0.823 µM; in experiment [7] (setting [16]), no less than 70 µM; in experiment [8] (setting [16]), 0.0157 µM.
As to VDICFWSTI, the Kd in experiment [3] (setting [21]) was no less than 77.9 µM; in experiment [4] (setting [21]), 5.11 µM; in experiment [5] (setting [21]), 1.07 µM; in experiment [6] (setting [21]), no less than 78.9 µM; in experiment [7] (setting [21]) it was 12.5 µM; in experiment [8] (setting [21]), 1.76 µM.
Take VFYRSGTET: in [2] (source organism: Vaccinia virus Copenhagen), the IC50 was no less than 148 µM.
As to VSENTGMGMY, the Kd in experiment [10] was 1.62 µM; in [6] (setting [19]) it was 0.034 µM; in experiment [11], no less than 36.9 µM; in [12] it was no less than 24.2 µM; in experiment [13], 13.4 µM; in experiment [14], 2.36 µM.
Consider VTYNCCDDDY, for which the Kd in [3] (setting [16]) is 18.5 µM; in experiment [4] (setting [16]) it was 0.08 µM; in [5] (setting [16]), no less than 70.3 µM; in [6] (setting [16]), 4.49 µM; in experiment [7] (setting [16]), no less than 70 µM; in experiment [8] (setting [16]), 0.0326 µM.
With VVAMRHLSL, the Kd in experiment [1] (setting [19]) came out at 0.000976 µM.
With VWLGFIAGL, the Kd was no less than 77.9 µM in experiment [3] (setting [16]); 0.012 µM in [4] (setting [16]); no less than 46.9 µM in [5] (setting [16]); 0.0362 µM in experiment [6] (setting [16]); 7.04 µM in experiment [7] (setting [16]); no less than 78.1 µM in experiment [8] (setting [16]).
In experiment [15], YHPVYILPY returned a Kd of 1.43 µM.
Regarding YLRDHFYNL, the Kd in experiment [1] (setting [19]) was found to be 0.0083 µM.
As for YPHYKSCAL, the Kd in [1] (setting [19]) was determined as 1.01 µM.
